Results on eleven molecules are retold here after patent US8114968 (dated 2012).

Assay [1] deals with T1, human MMP-12 (UniProt P39900 106-470).
Assay [2] deals with T2, murine MMP-12 (UniProt P34960 110-473). In words: enzyme inhibition; recombinant; peptide substrate.
Assay [3] has as its target T2, murine MMP-12.
In assay [4] the target is T1, human MMP-12. In words: enzyme inhibition.
Assay [5] concerns the target T2, murine MMP-12. In words: -; column head prints nM.
The target of assay [6] is M118-F11.
Assay [7] concerns the target M109-G11.
Assay [8] concerns the target M107-A12.
In assay [9] the target is M121-E07.
The target in assay [10] is M088-H10.
Assay [11] has as its target M109-G11. The source holds these as a separate data set.
Target sequence in this assay (P34960 110-473): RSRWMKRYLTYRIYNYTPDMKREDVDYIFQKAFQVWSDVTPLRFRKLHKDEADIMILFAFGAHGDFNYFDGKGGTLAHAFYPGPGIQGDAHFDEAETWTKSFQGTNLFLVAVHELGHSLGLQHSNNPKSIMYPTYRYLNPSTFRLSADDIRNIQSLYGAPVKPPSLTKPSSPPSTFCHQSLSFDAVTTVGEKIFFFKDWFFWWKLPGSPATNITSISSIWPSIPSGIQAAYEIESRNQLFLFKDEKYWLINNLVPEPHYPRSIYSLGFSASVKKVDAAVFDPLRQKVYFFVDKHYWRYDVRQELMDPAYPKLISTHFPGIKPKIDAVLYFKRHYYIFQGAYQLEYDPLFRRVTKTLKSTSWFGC
The target in assay [12] is M107-A12. This is another data set of the same source.
Target sequence in this assay (P34960 110-473): as above
For assay [13], the target named is M118-F11. In words: -; column head prints nM.
Target sequence in this assay (P34960 110-473): as above
Assay [14] has as its target M121-E07. In words: -; column head prints nM.
Target sequence in this assay (P34960 110-473): as above
The target in assay [15] is T2, murine MMP-12. As to the kind of experiment: enzyme inhibition.

The Kd is the concentration at which binding is half-saturated. Broadly, the IC50 is the concentration that gives 50% inhibition.

Read-outs that look alike come from different tables or passages of the source.

T2 sequence (P34960 110-473): as above
Chain of M088-H10 (P34960 110-473): as above

B1: 539B-M0008-H09 (format not stated) (antibody, V domains shown)
VH: EVQLLESGGGLVQPGGSLRLSCAASGFTFSDYNMHWVRQAPGKGLEWVSYIGPSGGYTHYADSVKGRFTISRDNSKNTLYLQMNSLRAEDTAVYYCAKDIRGAYSSGLFDYWGRGTLVTVSS
VL: DIQMTQSPSSLSASVGDRVTITCRANQSIYTYLNWYQQKPGKAPELLIYAASSLQSGVPSRFSGSGSGTDFTLTISSLQPEDFATYYCQQAGIFGQGTKLEIK
In [1], B1 displayed a Kd of 18 nM. In addition, the IC50 in assay [2] came to 3.7 nM.

B2: 539B-M0071-D09 (Fab, V domains shown)
VH: EVQLLESGGGLVQPGGSLRLSCAASGFTFSPYWMHWVRQAPGKGLEWVSGISSSGGDTLYADSVKGRFTISRDNSKNTLYLQMNSLRAEDTAVYYCAKDIRGAYSSGLFDYWGRGTLVTVSS
VL: DIQMTQSPSSLSASVGDRVTITCRANQSIYTYLNWYQQKPGKAPELLIYAASSLQSGVPSRFSGSGSGTDFTLTISSLQPEDFATYYCQQAGIFGQGTKLEIK
Regarding B2, the Kd in assay [3] is 1.3 nM; in assay [1], 4.2 nM.

B3: 539B-M131A06-GA-S (antibody, V domains shown)
VH: EVQLLESGGGLVQPGGSLRLSCAASGFTFSWYWMHWVRQAPGKGLEWVSGISPSGGMTMYADSVKGRFTISRDNSKNTLYLQMNSLRAEDTAVYYCARDIVGPYSAGLFDYWGRGTLVTVSS
VL: DIQMTQSPSSLSASVGDRVTITCRASQSIYTYLNWYQQKPGKAPKLLIYAASSLQSGVPSRFSGSGSGTDFTLTISSLQPEDFATYYCQQAGIFGQGTKLEIKR
In assay [4], B3 gave an IC50 of 0.233 nM.

B4: 539B-M0069-D10 (Fab, V domains shown)
VH: EVQLLESGGGLVQPGGSLRLSCAASGFTFSLYHMHWVRQAPGKGLEWVSGIGPSGGWTIYADSVKGRFTISRDNSKNTLYLQMNSLRAEDTAVYYCAKDIRGAYSSGLFDYWGRGTLVTVSS
VL: DIQMTQSPSSLSASVGDRVTITCRANQSIYTYLNWYQQKPGKAPELLIYAASSLQSGVPSRFSGSGSGTDFTLTISSLQPEDFATYYCQQAGIFGQGTKLEIK
Take B4: the Kd in assay [3] was found to be 3.4 nM; in [1] it was 5.7 nM.

B5: 539B-M131A06 (antibody, V domains shown)
VH: EVQLLESGGGLVQPGGSLRLSCAASGFTFSWYWMHWVRQAPGKGLEWVSGISPSGGMTMYADSVKGRFTISRDNSKNTLYLQMNSLRAEDTAVYYCARDIVGPYSAGLFDYWGRGTLVTVSS
VL: DIQMTQSPSSLSASVGDRVTITCRANQSIYTYLNWYQQKPGKAPELLIYAASSLQSGVPSRFSGSGSGTDFTLTISSLQPEDFATYYCQQAGIFGQGTKLEIK
As for B5, the values for the dissociation constant (Kd) in [1] and in assay [5] were 0.18 nM and 0.0727 nM, respectively. Besides, the IC50 in [4] worked out at 0.321 nM.

B6: 539B-M0071-H03 (Fab, V domains shown)
VH: EVQLLESGGGLVQPGGSLRLSCAASGFTFSPYWMHWVRQAPGKGLEWVSGIGPSGGPTFYADSIKGRFTISRDNSKNTLYLQMNSLRAEDTAVYYCAKDIRGAYSSGLFDYWGRGTLVTVSS
VL: DIQMTQSPSSLSASVGDRVTITCRANQSIYTYLNWYQQKPGKAPELLIYAASSLQSGVPSRFSGSGSGTDFTLTISSLQPEDFATYYCQQAGIFGQGTKLEIK
With B6, the affinity in assay [1], expressed as Kd, was 1 nM.

B7: 539B-M0065-E12 (Fab, V domains shown)
VH: EVQLLESGGGLVQPGGSLRLSCAASGFTFSWYNMHWVRQAPGKGLEWVSGISPSGGNTMYADSVKGRFTISRDNSKNTLYLQMNSLRAEDTAVYYCAKDIRGAYSSGLFDYWGRGTLVTVSS
VL: DIQMTQSPSSLSASVGDRVTITCRANQSIYTYLNWYQQKPGKAPELLIYAASSLQSGVPSRFSGSGSGTDFTLTISSLQPEDFATYYCQQAGIFGQGTKLEIK
As for B7, the Kd amounted to 1.7 nM in [3] and 1.1 nM in assay [1].

B8: Human MMP12 (enzyme)
chain: GPVWRKHYITYRINNYTPDMNREDVDYAIRKAFQVWSNVTPLKFSKINTGMADILVVFARGAHGDFHAFDGKGGILAHAFGPGSGIGGDAHFDEDEFWTTHSGGTNLFLTAVHEIGHSLGLGHSSDPKAVMFPTYKYVDINTFRLSADDIRGIQSLYGDPKENQRLPNPDNSEPALCDPNLSFDAVTTVGNKIFFFKDRFFWLKVSERPKTSVNLISSLWPTLPSGIEAAYEIEARNQVFLFKDDKYWLISNLRPEPNYPKSIHSFGFPNFVKKIDAAVFNPRFYRTYFFVDNQYWRYDERRQMMDPGYPKLITKNFQGIGPKIDAVFYSKNKYYYFFQGSNQFEYDFLLQRITKTLKSNSWFGC
For the molecule B8, the Kd in assay [6] was 1.17 nM; in assay [7], 7.5 nM; in [8], 1.8 nM; in assay [9], 0.197 nM.

B9: Mouse MMP12 (enzyme)
chain: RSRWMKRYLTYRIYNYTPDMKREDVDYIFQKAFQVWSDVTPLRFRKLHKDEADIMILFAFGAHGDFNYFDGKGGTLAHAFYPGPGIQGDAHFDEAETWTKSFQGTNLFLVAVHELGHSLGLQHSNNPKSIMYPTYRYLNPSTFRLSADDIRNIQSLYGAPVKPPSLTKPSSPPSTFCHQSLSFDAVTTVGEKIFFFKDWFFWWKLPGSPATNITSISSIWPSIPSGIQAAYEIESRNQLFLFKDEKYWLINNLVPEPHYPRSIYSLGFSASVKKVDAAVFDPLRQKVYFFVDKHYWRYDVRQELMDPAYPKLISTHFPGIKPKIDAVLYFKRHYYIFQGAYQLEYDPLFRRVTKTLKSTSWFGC
In the case of B9, the Kd in assay [10] worked out at 34.4 nM; in assay [11] it was 1 nM; in [12], 0.9 nM; in [13] it was 0.727 nM; in [14] it was 0.181 nM.

B10: 539B-M0011-H11 Fab (Fab, V domains shown)
VH: EVQLLESGGGLVQPGGSLRLSCAASGFTFSWYNMWWVRQAPGKGLEWVSYIYPSGGNTGYADSVKGRFTISRDNSKNTLYLQMNSLRAEDTAVYYCAVFEYSSSGPQGYWGQGTLVTVSS
VL: QSALTQPPSVSVAPGQTARITCGGNNIGTKSVHWYQQKSGQAPVLVVYDNSDRPSGIPERFSGSNSGNTATLTISRVEAGDEADYYCQVWDNSIDHVVFGGGTKLTVL
B10 registered a 50% inhibitory concentration (IC50) in assay [15] of 9 nM.

B11: 539B-M11H11 IgG (antibody, V domains shown)
VH: EVQLLESGGGLVQPGGSLRLSCAASGFTFSWYNMWWVRQAPGKGLEWVSYIYPSGGNTGYADSVKGRFTISRDNSKNTLYLQMNSLRAEDTAVYYCAVFEYSSSGPQGYWGQGTLVTVSS
VL: QSALTQPPSVSVAPGQTARITCGGNNIGTKSVHWYQQKSGQAPVLVVYDNSDRPSGIPERFSGSNSGNTATLTISRVEAGDEADYYCQVWDNSIDHVVFGGGTKLTVL
Regarding B11, in [15], the IC50 came out at 3 nM.
